From PMC13544220, “Glycemic and bodyweight effects of GIPR coding variation reflect differences in surface expression and intrinsic functional impairment” (Science Advances, 2026)

How the values were obtained:
Type in all cases: cell-based, human
[1] = system: wild-type and variant SNAP-GIPR; test: Surface SNAP-GIPR expression (SNAP-tag labelling) in AD293 cells; conditions: for AD293 Surface: Fig S3E, mean; for Surface SNAP-GIPR expression: sheet Fig 1C;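 for all read-outs here: scaled to the experimental average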
Method: (§1) Twenty-four hours before the experiment, AD293 or INS-1 cells were reverse transfected with GIPR variant or wild-type plasmids using Lipofectamine 2000 in 96-well, clear-bottom, black microplates precoated with poly-D-lysine. All variants were tested in parallel on each occasion to control for transfection efficiency differences between experiments. Cells were then labeled using the cell-impermeant probe SNAP-Surface Alexa Fluor 647 (500 nM, New England Biolabs, USA) for 10 min at room temperature to label only surface GIPR. […] Several fields of view (FOVs) were acquired within each well using a 20X, 0.75–numerical aperture (NA) air objective. Surface GIPR fluorescence was quantified after flat-field correction using BaSiC ([72]) and segmenting using Phantast ([73]), which generates a mask based on the phase contrast images to demarcate cell versus noncell. Wide-field imaging of the surface-specific labeling achieved by SNAP-Surface probes means that surface expression can be established from whole-cell fluorescence, after subtracting nonspecific fluorescence from a separate well containing nontransfected cells processed in parallel from the same experiment. Data were normalized by dividing by the average specific signal across each experiment, or by the wild-type value, as indicated in the figure legends.

[2] = system: wild-type and variant SNAP-GIPR; test: Surface SNAP-GIPR expression (SNAP-tag labelling) in INS-1 cells; conditions: Fig 4G; Mean
Method: as §1

[3] = system: wild-type and variant SNAP-GIPR; test: Single-concentration GIP cAMP response by HTRF in AD293 cells; conditions: Fig S3F, HTRF, mean;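 note: ratio to experiment-wide average response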
Method: (§2) All variants were tested in parallel on each occasion to control for transfection efficiency differences between experiments.

[4] = system: wild-type and variant SNAP-GIPR; test: Single-concentration GIP cAMP response by HTRF in INS-1 cells; conditions: Fig S3E, mean
Method: as §2

[5] = system: wild-type and variant SNAP-GIPR; test: cADDis cAMP imaging in AD293 cells, ensemble, expression-matched and per decile; conditions: Fig S3F, cADDis, mean
Method: AD293 cells were reverse transfected with the GIPR variant or wild-type plasmids using Lipofectamine 2000 and cotransduced with the cADDis Green Up BacMam (10 μl per well, Montana Molecular, USA), in 96-well, poly-D-lysine–coated microplates. All variants were tested in parallel on each occasion to control for transfection efficiency differences between experiments. After 24 hours, cells were labeled using 500 nM SNAP-Surface Alexa Fluor 647 for 10 min at room temperature. Cells were washed three times and then imaged in KRBH buffer containing 6 mM glucose and 0.1% BSA. Imaging was performed at 37°C by wide-field microscopy using the same microscope as in the “Assessment of surface GIPR expression by SNAP-tag labeling in cell lines” section, with 9 FOVs for both cADDis and SNAP-Surface fluorescence acquired from each well using a 10X, 0.45 NA air objective. […] Flat-field correction was performed using BaSiC ([72]), drift correction was performed using SIFT, and a maximum intensity projection of the cADDis channel was used to segment individual cells. cAMP responses were determined by quantifying the cADDis fluorescence intensity for each cell at each time point. Nonviable cells or noncell objects were excluded according to criteria for allowable cell IBMX/FSK responses. […] The cADDis mask was then used to quantify the SNAP-Surface signal from each cell. Wild-type SNAP-Surface readings were split into deciles, and these deciles were subsequently used to categorize variant-transfected cells to match against the wild type. After trimming the top and bottom deciles, the mean was taken of each decile mean for surface expression level or cAMP response, which achieved matched expression levels by effectively applying an inverse weighting to counteract differences in cell number in each decile for different variants. Ensemble expression levels or cAMP responses were calculated without regard to deciles. Variant cADDis responses were also analyzed within their own surface expression deciles.

[6] = system: wild-type and variant SNAP-GIPR; test: Constitutive and agonist-mediated internalization, reversible SNAP-tag labelling, AD293 cells; design: key to Internalisation, Vehicle / Internalisation, +GIP / Internalisation, GIP-only: % internalization: residual fluorescence after Mesna vs pre-Mesna; Surface expression: unit not given here; conditions: Mean
Method: (§3) Twenty-four hours before the experiment, AD293 or INS-1 cells were reverse transfected with GIPR variant or wild-type plasmids using Lipofectamine 2000 in 96-well, clear-bottom, black microplates precoated with poly-D-lysine. All variants were tested in parallel on each occasion to control for transfection efficiency differences between experiments. […] Media were then removed, cells washed with PBS and then placed in TNE buffer (pH 8.6) for imaging. […] After 10 min, the well was reimaged again to detect remaining fluorescence from internalized GIPR. Images were analyzed as in the “Assessment of surface GIPR expression by SNAP-tag labeling in cell lines” section, with the residual specific fluorescence after Mesna treatment expressed relative to the pre-Mesna value to establish percentage internalization.

[7] = system: wild-type and variant SNAP-GIPR; test: Constitutive and agonist-mediated internalization, reversible SNAP-tag labelling, INS-1 cells; design: key to Internalisation, GIP-only / Internalisation, Vehicle / Internalisation, +GIP: % internalization: residual fluorescence after Mesna vs pre-Mesna; conditions: Mean
Method: as §3

B1: I378M (protein, UniProt P48546 22-466, looked up, variant I378M)
Gastric inhibitory …: RAETGSKGQTAGELYQRWERYRRECQETLAAAEPPSGLACNGSFDMYVCWDYAAPNATARASCPWYLPWHHHVAAGFVLRQCGSDGQWGLWRDHTQCENPEKNEAFLDQRLILERLQVMYTVGYSLSLATLLLALLILSLFRRLHCTRNYIHINLFTSFMLRAAAILSRDRLLPRPGPYLGDQALALWNQALAACRTAQIVTQYCVGANYTWLLVEGVYLHSLLVLVGGSEEGHFRYYLLLGWGAPALFVIPWVIVRYLYENTQCWERNEVKAIWWIIRTPILMTILINFLIFIRILGILLSKLRTRQMRCRDYRLRLARSTLTLVPLLGVHEVVFAPVTEEQARGALRFAKLGFEMFLSSFQGFLVSVLYCFINKEVQSEIRRGWHHCRLRRSLGEEQRQLPERAFRALPSGSGPGEVPTSRGLSSGTLPGPGNEASRELESYC
[1]; column repeated, paired with cAMP 100 nM
  AD293 Surface: 1.77
[1]; paired with cAMP 100 pM
  AD293 Surface: 1.77
[1]; replicate 1
  Surface SNAP-GIPR expression: 1.773
[1]; replicate 2
  Surface SNAP-GIPR expression: 1.115
[1]; replicate 3
  Surface SNAP-GIPR expression: 0.7558
[1]; replicate 4
  Surface SNAP-GIPR expression: 2.264
[1]; replicate 5
  Surface SNAP-GIPR expression: 2.029
[1]; replicate 6
  Surface SNAP-GIPR expression: 1.522
[1]; replicate 7
  Surface SNAP-GIPR expression: 1.263
[1]; replicate 8
  Surface SNAP-GIPR expression: 1.045
[1]; replicate 9
  Surface SNAP-GIPR expression: 1.7
[1]; replicate 10
  Surface SNAP-GIPR expression: 1.857
[1]; replicate 11
  Surface SNAP-GIPR expression: 1.523
[1]; replicate 12
  Surface SNAP-GIPR expression: 1.59
[1]; replicate 13
  Surface SNAP-GIPR expression: 1.942
[1]; replicate 14
  Surface SNAP-GIPR expression: 2.071
[1]; replicate 15
  Surface SNAP-GIPR expression: 1.739
[1]; replicate 16
  Surface SNAP-GIPR expression: 1.656
[1]; replicate 17
  Surface SNAP-GIPR expression: 1.757
[1]; replicate 18
  Surface SNAP-GIPR expression: 2.038
[1]; replicate 19
  Surface SNAP-GIPR expression: 1.806
[1]; replicate 20
  Surface SNAP-GIPR expression: 1.652
[1]; replicate 21
  Surface SNAP-GIPR expression: 1.678
[1]; replicate 22
  Surface SNAP-GIPR expression: 1.86
[1]; replicate 23
  Surface SNAP-GIPR expression: 1.91
[1]; replicate 24
  Surface SNAP-GIPR expression: 1.99
[1]; replicate 25
  Surface SNAP-GIPR expression: 1.721
[1]; replicate 26
  Surface SNAP-GIPR expression: 1.677
[1]; replicate 27
  Surface SNAP-GIPR expression: 2.102
[1]; replicate 28
  Surface SNAP-GIPR expression: 2.164
[1]; replicate 29
  Surface SNAP-GIPR expression: 2.007
[1]; replicate 30
  Surface SNAP-GIPR expression: 1.865
[1]; replicate 31
  Surface SNAP-GIPR expression: 1.878
[1]; replicate 32
  Surface SNAP-GIPR expression: 1.784
[1]; replicate 33
  Surface SNAP-GIPR expression: 1.822
[1]; replicate 34
  Surface SNAP-GIPR expression: 1.937
[1]; replicate 35
  Surface SNAP-GIPR expression: 1.581
[1]; replicate 36
  Surface SNAP-GIPR expression: 1.504
[1]; replicate 37
  Surface SNAP-GIPR expression: 2.229
[1]; replicate 38
  Surface SNAP-GIPR expression: 1.734
[1]; replicate 39
  Surface SNAP-GIPR expression: 2.181
[1]; replicate 40
  Surface SNAP-GIPR expression: 1.889
[1]; replicate 41
  Surface SNAP-GIPR expression: 1.94
[2]
  Surface expression: 1.534
[3]; AD293, 100 pM
  AD293 100 pM HTRF: 1.235
[3]; AD293, 100 nM
  AD293 100 nM HTRF: 1.479
[4]
  INS-1 cAMP (100 nM): 1.242
[5]; AD293, 100 pM
  AD293 100 pM cADDis: 37.0191
[5]; AD293, 100 nM
  AD293 100 nM cADDis: 39.23
[6]; Fig 4E, GIP 100 nM
  +GIP internalisation (100 nM): 1.013
  GIP-specific internalisation (100 nM): 0.2773
[6]; Fig 4E
  Constitutive internalisation (100 nM): 0.7358
  Surface expression: 1.854
[6]; Fig S4C, AD293
  Internalisation, +GIP: 54.7212
  Internalisation, GIP-only: 14.9417
  Internalisation, Vehicle: 39.7795
[7]; Fig 4G, GIP 100 nM
  +GIP internalisation (100 nM): 0.6937
  GIP-specific internalisation (100 nM): 0.1611
[7]; Fig 4G
  Constitutive internalisation (100 nM): 0.5325
[7]; Fig S4C, INS-1
  Internalisation, +GIP: 45.8367
  Internalisation, GIP-only: 10.74
  Internalisation, Vehicle: 35.0967
